Data set [1] deals with T1, pL807.
T1 chain: KEAPPSPPQSP

Data set [2] deals with T2, L807.
T2 chain: KEAPPSPPQSP

Where a chain is given by its changes, count along the chain named. In names and notes the source's numbering stands.

B1: Bacterially expressed Purified GSK-3β Wild-Type (WT) (protein)
chain: MSGRPRTTSFAESCKPVQQPSAFGSMKVSRDKDGSKVTTVVATPGQGPDRPQEVSYTDTKVIGNGSFGVVYQAKLCDSGELVAIKKVLQDKRFKNRELQIMRKLDHCNIVRLRYFFYSSGEKKDEVYLNLVLDYVPETVYRVARHYSRAKQTLPVIYVKLYMYQLFRSLAYIHSFGICHRDIKPQNLLLDPDTAVLKLCDFGSAKQLVRGEPNVSYICSRYYRAPELIFGATDYTSSIDVWSAGCVLAELLLGQPIFPGDSGVDQLVEIIKVLGTPTREQIREMNPNYTEFKFPQIKAHPWTKDSSGTGHFTSGVRVFRPRTPPEAIALCSRLLEYTPTARLTPLEACAHSFFDELRDPNVKLPNGRDTPALFNFTTQELSSNPPLATILIPPHARIQAAASTPTNATAASDANTGDRGQTNNAASASASNST
Take B1: the “peptide phosphorylation by GSK-3β (in vitro kinase assay, 32P-γ-ATP)” value in data set [1] is reported as “pL807 is not a substrate of GSK-3”. In data set [2], the “peptide phosphorylation by GSK-3β (in vitro kinase assay, 32P-γ-ATP)” value was “shows that L807 is a substrate of GSK-3”; the “peptide phosphorylation by WT GSK-3β (in vitro kinase assay)” value was “L807 is phosphorylated by both GSK-3 and F93A”.

B2: GSK-3β F93A mutant (in which Phe93 was replaced by alanine) (protein)
chain: B1 chain with F93A
In the case of B2, in data set [2], the “peptide phosphorylation by the F93A mutant (in vitro kinase assay)” value was “L807 is phosphorylated by both GSK-3 and F93A”.

These data come from patent US20160200763.
